Results published in the supplement of paper PMC7125110.
± gives the standard error. This sample holds only a part of the variants without activity.

B1: glmS ribozyme (parent)
chain: AUAAAAGCGCCAGAACUACAGAAAUGUAGUUGACGAGGAGGAGGUUUAUCGAAUUUUCGGCGGAUGCCUCCAAA

Experiments:
Details in all cases: with glucosamine-6-phosphate
glucosamine-6-phosphate [1] = variants of: B1; experiment: self-cleavage kobs at 160 uM GlcN6P; higher = faster cleavage; RNA array
Summary of the method: (§1)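 kcat and KM were obtained from weighted Michaelis–Menten fits across concentrations of kobs values. Those came from one- or two-exponential decay fits to per-tile medians normalised to baseline and to non-cleaving reference variants. The variants were barcoded ribozymes transcribed in situ by E. coli RNA polymerase on sequenced MiSeq chips and tracked through a hybridised Cy3 probe at 37 °C, with 40 μM to 10 mM glucosamine-6-phosphate in HEPES/KCl/Mg(OAc)2 buffer flowed in.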

glucosamine-6-phosphate [2] = variants of: B1; experiment: self-cleavage kobs at 640 uM GlcN6P; higher = faster cleavage; RNA array
Summary of the method: as §1

glucosamine-6-phosphate [3] = variants of: B1; experiment: self-cleavage kobs at 10000 uM GlcN6P; higher = faster cleavage; RNA array
Summary of the method: as §1

glucosamine-6-phosphate [4] = variants of: B1; experiment: self-cleavage kobs at 2500 uM GlcN6P; higher = faster cleavage; RNA array
Summary of the method: as §1

Row | Variant | self-cleavage kobs at 160 uM GlcN6P (glucosamine-6-phosphate [1]) | self-cleavage kobs at 640 uM GlcN6P (glucosamine-6-phosphate [2]) | self-cleavage kobs at 10000 uM GlcN6P (glucosamine-6-phosphate [3]) | self-cleavage kobs at 2500 uM GlcN6P (glucosamine-6-phosphate [4])
1 | C10G C11A C16U G38U | < 1e-05 s⁻¹ | < 1e-05 s⁻¹ | < 1e-05 s⁻¹ | –
2 | G7U G60C G66U | < 1e-05 s⁻¹ | – | – | –
3 | G35C G60A C68A | < 1e-05 s⁻¹ | < 1e-05 s⁻¹ | – | –
4 | C16G A42G G60C C70U | < 1e-05 s⁻¹ | – | – | < 1e-05 s⁻¹
5 | G7C U55A A64U | < 1e-05 s⁻¹ | < 1e-05 s⁻¹ | – | < 1e-05 s⁻¹
6 | G9A U65G | < 1e-05 s⁻¹ | < 1e-05 s⁻¹ | – | –
7 | G7A C71G | < 1e-05 s⁻¹ | – | – | –
8 | G37A G38U U55C | < 1e-05 s⁻¹ | < 1e-05 s⁻¹ | – | –
9 | G9C A36C | < 1e-05 s⁻¹ | < 1e-05 s⁻¹ | < 1e-05 s⁻¹ | < 1e-05 s⁻¹
10 | A12G G35U A53U | < 1e-05 s⁻¹ | – | < 1e-05 s⁻¹ | –
11 | G29U U31A U56A C67A | 2.97e-05 ± 1.5e-05 s⁻¹ | – | 0.00027 ± 5.8e-05 s⁻¹ | –
12 | C10G G41C G63U | < 1e-05 s⁻¹ | < 1e-05 s⁻¹ | – | –
13 | G29U U49C C50G C70A | 5.5e-05 ± 2.2e-05 s⁻¹ | 0.000125 ± 5.5e-05 s⁻¹ | – | –
14 | G43C C67U | < 1e-05 s⁻¹ | – | – | < 1e-05 s⁻¹
15 | G41A U55G C71A | 5.4e-05 ± 1.6e-05 s⁻¹ | 8.59e-05 ± 2.3e-05 s⁻¹ | – | 0.000196 ± 3.5e-05 s⁻¹
16 | G32C G38U G43A C67A | < 1e-05 s⁻¹ | – | – | < 1e-05 s⁻¹
17 | G38A G40A U49G G60U | < 1e-05 s⁻¹ | < 1e-05 s⁻¹ | – | < 1e-05 s⁻¹
18 | C34A A36G A39U A48C | < 1e-05 s⁻¹ | – | – | < 1e-05 s⁻¹
19 | G7U G32U A33C U47A G59A | < 1e-05 s⁻¹ | – | – | –
20 | G9U G43A G66U | < 1e-05 s⁻¹ | – | – | < 1e-05 s⁻¹
21 | G35A A36U U55A | < 1e-05 s⁻¹ | – | – | –
22 | C10G U45C U49A U54G C70G | < 1e-05 s⁻¹ | < 1e-05 s⁻¹ | – | –
23 | A15U C34A A64G | < 1e-05 s⁻¹ | – | – | < 1e-05 s⁻¹
24 | G13U A15G G35C A52U | < 1e-05 s⁻¹ | < 1e-05 s⁻¹ | – | < 1e-05 s⁻¹
25 | C61U A64C C67G | < 1e-05 s⁻¹ | – | – | < 1e-05 s⁻¹
26 | C8A G63A | < 1e-05 s⁻¹ | – | < 1e-05 s⁻¹ | < 1e-05 s⁻¹

Row | Variant | self-cleavage kobs at 160 uM GlcN6P (glucosamine-6-phosphate [1]) | self-cleavage kobs at 640 uM GlcN6P (glucosamine-6-phosphate [2]) | self-cleavage kobs at 10000 uM GlcN6P (glucosamine-6-phosphate [3]) | self-cleavage kobs at 2500 uM GlcN6P (glucosamine-6-phosphate [4])
27 | A15C G32C A48C | < 1e-05 s⁻¹ | – | – | –
28 | G35A G41C U69A | < 1e-05 s⁻¹ | < 1e-05 s⁻¹ | – | < 1e-05 s⁻¹
29 | G7U G62A C67A | < 1e-05 s⁻¹ | < 1e-05 s⁻¹ | – | < 1e-05 s⁻¹
30 | G9C U46G | < 1e-05 s⁻¹ | < 1e-05 s⁻¹ | < 1e-05 s⁻¹ | –
31 | A36U U65C | < 1e-05 s⁻¹ | – | – | –
32 | A33U G35A | < 1e-05 s⁻¹ | < 1e-05 s⁻¹ | – | < 1e-05 s⁻¹
33 | C8G G40U C61A C71U | < 1e-05 s⁻¹ | – | – | –
34 | G51U A53U C58A C70A | 8.95e-05 ± 1.6e-05 s⁻¹ | 7.01e-05 ± 2.6e-05 s⁻¹ | – | 5.47e-05 ± 2.1e-05 s⁻¹
35 | G9A A36C G41U A64G C70U | < 1e-05 s⁻¹ | < 1e-05 s⁻¹ | < 1e-05 s⁻¹ | < 1e-05 s⁻¹
36 | G9U A14G U54A U56C G59A G63A U65G | < 1e-05 s⁻¹ | < 1e-05 s⁻¹ | – | –
37 | G38C A39G | < 1e-05 s⁻¹ | < 1e-05 s⁻¹ | – | –
38 | G9C A48G | < 1e-05 s⁻¹ | < 1e-05 s⁻¹ | < 1e-05 s⁻¹ | < 1e-05 s⁻¹
39 | G32A A42G U56A C70A | < 1e-05 s⁻¹ | – | – | –
40 | G26U U54A | 0.000887 ± 0.00025 s⁻¹ | 0.00635 ± 0.002 s⁻¹ | 0.0333 ± 0.0093 s⁻¹ | 0.00265 ± 0.0013 s⁻¹
41 | U31G A33U G38U | < 1e-05 s⁻¹ | – | – | –
42 | A6G U47C C67G | < 1e-05 s⁻¹ | < 1e-05 s⁻¹ | – | –
43 | G9A U49A | < 1e-05 s⁻¹ | < 1e-05 s⁻¹ | – | < 1e-05 s⁻¹
44 | C8U A39U U46C U56C G59U | < 1e-05 s⁻¹ | < 1e-05 s⁻¹ | – | < 1e-05 s⁻¹
45 | G32U G35A A42C | < 1e-05 s⁻¹ | < 1e-05 s⁻¹ | – | < 1e-05 s⁻¹
46 | U30G A39U A42U | 0.000126 ± 5.7e-05 s⁻¹ | – | – | –
47 | C10U C11G A39C | < 1e-05 s⁻¹ | < 1e-05 s⁻¹ | – | –
48 | C34U G35U A39C G63A C67U | < 1e-05 s⁻¹ | – | – | –
49 | G9C G40U | < 1e-05 s⁻¹ | < 1e-05 s⁻¹ | < 1e-05 s⁻¹ | < 1e-05 s⁻¹
50 | G9C G40A | < 1e-05 s⁻¹ | < 1e-05 s⁻¹ | < 1e-05 s⁻¹ | < 1e-05 s⁻¹
51 | G40A U45C | 4.64e-05 ± 1.6e-05 s⁻¹ | – | – | 0.000553 ± 0.00016 s⁻¹
52 | C10G G29A G62U C71U | < 1e-05 s⁻¹ | < 1e-05 s⁻¹ | – | < 1e-05 s⁻¹
